Reference: patent US8785185B2, “Differentiation of human embryonic stem cells” (Janssen Biotech, Inc., priority 2009, dated 2014)

How the values were obtained:
Format in all cases: cell-based
[1] = tested on: human embryonic stem cell line H1; experiment: Real-time PCR of pancreatic markers at stage 3 day 4, Treatments 1-3 (Table 1); conditions: normalized to treatment 1, stage 3 treatment for four days
Protocol: (§1) RPMI medium (Catalogue #22400, Invitrogen, Ca) supplemented with 2% BSA (Catalog #152401, MP Biomedical, Ohio), and 100 ng/ml activin A (R&D Systems, MN) plus 20 ng/ml WNT-3a (Catalog #1324-WN-002, R&D Systems, MN) plus 8 ng/ml of bFGF (Catalog #100-18B, PeproTech, NJ), for one day followed by treatment with RPMI media supplemented with 2% BSA and 100 ng/ml activin A plus 8 ng/ml of bFGF for an additional two days (Stage 1), then • b. DMEM/F12 (Catalogue #11330, Invitrogen, Ca)+2% BSA+50 ng/ml FGF7 for three days (Stage 2), then • c. Either Treatment 1: DMEM (high glucose)+1% B27 (Invitrogen, CA)+50 ng/ml FGF7, 0.25 μM Cyclopamine-KAAD, 2 μM retinoic acid (RA) and 100 ng/ml of Noggin for four days, or • d. Treatment 2: DMEM (high glucose)+1% B27 (Invitrogen, CA)+50 ng/ml FGF7, 0.25 μM Cyclopamine-KAAD, 2 μM retinoic acid (RA), 100 ng/ml of Noggin, 20 ng/ml activin A, for four days, or • e. Treatment 3: DMEM (high glucose)+1% B27 (Invitrogen, CA)+50 ng/ml FGF7, 0.25 μM Cyclopamine-KAAD, 2 μM retinoic acid (RA), 100 ng/ml of Noggin, 1 μM ALK5 inhibitor II, for four days.
(§2) Cultures were sampled in duplicate on stage 3 day 4, and analyzed for expression of pancreatic markers using real-time PCR. Cultures also were fixed in parallel for immunofluorescence analysis.

[2] = tested on: human embryonic stem cell line H1; experiment: Immunofluorescence analysis of marker expression at stage 3 day 4 (FIG. 2, FIG. 3)
Protocol: as §1, §2
Treatment 1 (FGF7, retinoic acid and Noggin) induced the expression of NKX6.1 and NGN3.
This is in contrast with PDX1 expressing cells generated by using DMEM/F12 supplemented with 1% B27 (Invitrogen, CA)+50 ng/ml FGF7, 0.25 μM Cyclopamine-KAAD, 2 μM retinoic acid (RA), 100 ng/ml of Noggin, 20 ng/ml activin A, wherein most PDX1 expressing cells also expressed CDX2.

[3] = tested on: human embryonic stem cell line H1; experiment: Real-time PCR of pancreatic markers at stage 3 day 4, activin A 20 or 50 ng/ml added at stage 3 (FIG. 1); conditions: 20 or 50 ng/ml activin A with FGF7, cyclopamine-KAAD, retinoic acid, Noggin
Protocol: Briefly, cells of the human embryonic stem cell line H1 were cultured on MATRIGEL™ (1:30 dilution) coated dishes and RPMI medium supplemented with 2% BSA, 100 ng/ml activin A, 20 ng/ml WNT-3a, 8 ng/ml of bFGF for one day, followed by treatment with RPMI media supplemented with 2% BSA, 100 ng/ml activin A, 8 ng/ml of bFGF for an additional two days (Stage 1), then • a. DMEM/F12+2% BSA+50 ng/ml FGF7+0.25 μM Cyclopamine-KAAD for three days (Stage 2), then • b. DMEM-High glucose+1% B27+50 ng/ml FGF7+0.25 μM Cyclopamine-KAAD+2 μM Retinoic acid (RA)+100 ng/ml of Noggin+20 ng/ml activin A or 50 ng/ml activin A for four days (Stage 3).
As a control, separate populations of cells were treated with DMEM High glucose, supplemented with 1% B27, 50 ng/ml FGF7, 0.25 μM Cyclopamine-KAAD, 2 μM retinoic acid (RA), and 100 ng/ml of Noggin.
Cultures were sampled in duplicate on stage 3 day 4, and analyzed for expression of pancreatic markers using real-time PCR.
A down-regulation of NGN3 expression was also observed in the cells at stage 3 day 4.

Cc1cccc(-c2[nH]ncc2-c2ccc3ncccc3n2)n1 [ALK5 inhibitor II]
relative expression level of NKX6.1 [1]: decrease
relative expression level of PDX1 [1]: No significant impact
expression of NGN3 / number of NGN3 expressing cells [2]: significantly increased

B1: activin A (protein, UniProt P08476 311-426, looked up)
Inhibin beta A chain: GLECDGKVNICCKKQFFVSFKDIGWNDWIIAPSGYHANYCEGECPSHIAGTSGSSLSFHSTVINHYRMRGHSPFANLKSCCVPTKLRPMSMLYYDDGQNIIKKDIQNMIVEECGCS
modifications: Inhibin beta A chain
notes: a member of the TGF-β superfamily (R&D Systems)
expression of NGN3 / number of NGN3 expressing cells [2]: blocked
expression of NKX6.1 / number of NKX6.1 expressing cells [2]: significantly increased
NGN3 expression [3]: down-regulation
NKX6.1 expression ([3]; real-time PCR, versus cells receiving no activin A): increase
